Assay results published in article PMC10213515.

target: FtsZ (UniProt P0A9A6); assay: PL recruitment assay (SUV co-sedimentation by low-speed centrifugation, SDS-PAGE); details: FtsZ 3 μM, GTP 2 mM, FtsA wild type or mutant 2.5 μM, SUVs 250 μg ml-1, ATP 4 mM; parent: 93.7
UniProt P0A9A6, sequence (P0A9A6 whole entry): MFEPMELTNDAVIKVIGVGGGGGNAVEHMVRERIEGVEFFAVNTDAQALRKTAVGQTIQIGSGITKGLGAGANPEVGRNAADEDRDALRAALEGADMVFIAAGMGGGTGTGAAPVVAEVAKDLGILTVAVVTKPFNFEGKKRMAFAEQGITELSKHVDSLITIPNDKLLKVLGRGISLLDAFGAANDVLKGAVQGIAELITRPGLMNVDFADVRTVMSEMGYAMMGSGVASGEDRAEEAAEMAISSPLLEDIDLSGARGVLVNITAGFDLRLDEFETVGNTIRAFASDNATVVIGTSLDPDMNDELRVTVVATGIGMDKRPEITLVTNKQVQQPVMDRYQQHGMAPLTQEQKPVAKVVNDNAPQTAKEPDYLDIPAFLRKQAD

Row | Substance | response
1 | FtsA wild type (from UniProt P0ABH0) A188V | 95.3 % of total
2 | FtsA wild type (from UniProt P0ABH0) E14R | 83.8 % of total
3 | FtsA wild type (from UniProt P0ABH0) S84L | 97.2 % of total
4 | FtsA wild type (from UniProt P0ABH0) Y375A | 41.1 % of total
